Reference: the DeepSol protein solubility set

Experiment: soluble on expression in E. coli; label from the status in PepcDB or PDB records

Row | Sequence | soluble on expression in E. coli
1 | MAHHHHHHMGGPREVTLKILDAIEAELKMSFKSIVEDRSLPYVSSSDTILVFGRSSLVEYILLSRSRDPQCKPKRVIVIDSAPLFEGRQLAEKLSSAGIDVTYGLITACCTLMPKCTRVFMGASAVLQNGDMFGRCGMALVAACAKLFRKPVLCFSESYKFVPEVWVGNLAQNTKLADMRPAAEVHGSDTGTHSPLVYPTPPTLSPPQLRASGGWGTPARGADFLTRSGGGGAVPFSSSASGYLYDLTPASYIDMIICEMGCLHTSAIVAAIKDREGRDTSQLLNLVRG | not soluble
2 | SLADHMLKRACEWMRFLGYTVYYPECHYDNDILKTCIEKKLVLLTRDIELYKRYALSVYIDSVNINEQIIQITRQFPPDPGKFMTKCPDCGSDLILMRSNGLDIPDKIKKSFSMVRYCNKCSKAFWPGTHYIKIIEKINRLLK | not soluble
3 | MAEKKLEENPYDLDAWSILIREAQNQPIDKARKTYERLVAQFPSSGRFWKLYIEAEIKAKNYDKVEKLFQRCLMKVLHIDLWKCYLSYVRETKGKLPSYKEKMAQAYDFALDKIGMEIMSYQIWVDYINFLKGVEAVGSYAENQRITAVRRVYQRGCVNPMINIEQLWRDYNKYEEGINIHLAKKMIEDRSRDYMNARRVAKEYETVMKGLDRNAPSVPPQNTPQEAQQVDMWKKYIQWEKSNPLRTEDQTLITKRVMFAYEQCLLVLGHHPDIWYEAAQYLEQSSKLLAEKGDMNNAKLFSDEAANIYERAISTLLKKNMLLYFAYADYEESRMKYEKVHSIYNRLLAIEDIDPTLVYIQYMKFARRAEGIKSGRMIFKKAREDARTRHHVYVTAALMEYYCSKDKSVAFKIFELGLKKYGDIPEYVLAYIDYLSHLNEDNNTRVLFERVLTSGSLPPEKSGEIWARFLAFESNIGDLASILKVEKRRFTAFREEYEGKETALLVDRYKFMDLYPCSASELKALGYKDV | soluble
4 | MGSDKIHHHHHHMLEFPALRPFLWSGRYNRPLMPLTYLTRIAQTPAPTFQEEARAELIARLWSDLGYVTERDEVGNVLTRITPPGTEGRPALLLAAHLDTVFGGQTDVTVHDEGQRLRGPGVGDNSASLAVVTAMLRDFRTAPPLLRRPLWVAANVGEEGLGDLRGAKHLLAAHRPQLGAFVAVDGYLGVAVTQAVGVRRYRAQFVGPGGHSWGDQAPSALHALGLAISGLYALHLPAQPRTTLNVGTAAGGNSVNSIAGQAELLLDLRSLGADELAALDSRAQDVLHRAARDAGVSLRLERVGDRPGGDLHTGALLGMAHAAAREVRVDLRLAASSTDANAAAPHVLPALAFGVYRGGNAHREDEWVEKRSLAPGLTALKRLVALYQAAPLA | not soluble
5 | MKEDWYRKMYGPSASKTYETSLFNLITSEFGYIGGPDVVKLFTKKIVELNNQYYLREEFVRPGQMRWLVLKAGQKYSKSKKLSEMQLIPVTLTLINPEDIEDRITKVKKNELIEKLIVRLCNETKEQGGVLTETDIAILFRLSCTMISNHVTSYEKRTKKVIPRAGTEMDMGKSLTHKRLAFHNYKKKIPTSENARLIDHTPESVDRYIKDGTRIEKLYAAGYDEWNMAFFTGLPIYVVQEYVEIIKSYEKEKNDKKDIENQ | not soluble
6 | MVGDGIAKFIPEGFDAQKIPSFAIEKEPREQGALPADWVLVPEFSLTDGKANASLTVPEGTSIYGGGEVTGSLLRNGKTIKLWNTDSGAYGVDKGTRLYQSHPWMMGVRKDGTAFGILFDTTWKAELSSTDEKIELKSEGIPFRVFIIDRESPQAVIRGLSELTGTMPMIPRWALGYQQCRFSYSPDSRVIEIADTFRLKRIPCDVIWMDIDYMDGYRIFTFNPKSFPNPKAVNRDLHIRGFHSAWMIDPGAKVDPNYFVYKSGTENDVWVKTADGKNFHGDAWPGAAAFPDFTSPKVNKWWRNLYKDFLAQGVDGVWNDVNEPQINDTPNKTMPEDNLHRGGGKLPAGTHLQYHNVYGFLMVKASREGILDARPEKRPFILTRSNFLGGQRYAATWTGDNGSCWDHLKMSVPMSLTLGLSGQPFSGADIGGFLFNADADLFGNWIGFGAFYPFARGHACAGTNNKEPWVFGQKVEDASRIALERRYILLPYFYTLLHEASTNGMPIMRPVFFSDPKDLSLRAEEEAFLVGDNLLIIPAFANQPALPKGIWKELSLVEGDQNDKYQAKMKIRGGAIIPTGKIIQNTTENSLDPLTLLVCLDEQGKASGNMYWDAGDGWSYKKGDYSLLQFVAERNGDKVTVKLTKKTGKYNTENKDMAVIKIITDQGIRQASGNLVEGIEIRL | not soluble
7 | DREELDKQLRHERERFRLLVDAVENYAIFLLDPDGLIQSWNVGAKQLTQYEESDILGEHVSTFHTEKQVADGIPEQLLQEAEECGKAIDRGLRVRKDGSTFWADVTVTALQENSDARGFAKVIKDIT | not soluble
8 | MKTTPVTPDDLQRSVIAVPPLARHADLTLNPAANQAVLRHLEAGGVRSVMYGGNANFYHVQVSEYAQLLDFLAESAGPDTWVLPSAGPDYGKLMDQAAILRTRDFPTAMLLPMSFPYTDAGLADGIRRFSDAMDRPAVVYIKSSDYLAPATVARLIGEGRIAALKYAVVREDPARDPYLDALLKEVDPRWIVSGIGERPAIVHFRQFGLRSFTSGSVCVAPRGSMRLLHLLHQGDFEAAEQVRAAYIPLEDCRDGISPIRVLHDAVTLAGVADMGPMLPLLSGLDPADRERVAPVARALLAGDRQ | not soluble
9 | MTRMLPEPAYRHGSVGKIGVLMINLGTPDAPTAKALRAYLKQFLSEPRIVEFPRWLWWFILNGIILNVRPAKSAKKYEQIWTSEGSPLRVHTARQTALVAALLEQQADSSLVVEYAMIIGNPSIAEKLQQMKVQGCDRILVLPLFPQYAASSTGCVLDGVFSELRKMRNIPDIRTVRHYHDDPGYIAALAQNVRDYWEKHGQPDKLIISFHGVPRKTLEMGDPYHCECQKTGRLLAEALELADDRYQICFQSRFGFAQWLGPYTAEILAELGKQKTGRVDVVCPGFVSDCLETLEEIALEGKAIFTEAGGGEFHYIPSLNEHPLWIEAIGNIIQTHLTGWADRRLSEEAAERSRKRALALGARE | not soluble
10 | MSASPLQITEKSPEMSQTPPKDENNELEFGIPTKRSRSGRPKKICAFSSFKCYEERDIEFFIHQVSDNQIIWDRRNSLNFDGNLVHATFDKIEICCQFLARKNGENASRLWTELASEYKREKARIEQLPSGIYSEEFEIRFPFMQQMWFLEIEASELKEADSNSLEETIVNFARQKSINDAPSPSSSLSAPIEHLNSSINRLIAVIDKKSEDTTKRQIPAKYSDIVEHLIGFLDKTPRERQMEVKCKIYNFLDTIN | not soluble
11 | MGSDKIHHHHHHMLGDLLTTFFEVARQGSITTAARQLGVSQPTVTARIRQLEDVYGVELFYRRASRVDLSDVGVALMPVVEQLMQQESNADYLLRNAGNLRFGNLRIGATGPYYILRSVAAFRQRYPAVEVSIEIGNSQQMIEALLEYRIDAAVSSHAVDDSRLARIRLASDPMVLVVHPEHPFARMPHIDIARLAECHLLVREHGSMTRQATEAALAACGQELPRHMVIGSREAIYEAIRQNIGASVVPAGEVPRDPSLRIVPFAQRPPVIHEYLYCLESRRHTRLVGALLECVESLAPHQQAQAA | not soluble
12 | MIDQFMSMSELIDHTEEHKDWQILYNERVAKSLITAVHGGAIERGTSEIAQLISEIGGYSFYTFKGIRKNKNHELHVTSKHFDEPILNELVPTHEVVVSLHGCMGNDVAVYIGGKDLELSYEITQQLQKIGIVVKPAPAHIAGMQTENFVNKGKRDAGVQLELTVALRKQCFKNNKYNLHDRENRENWSQLMFSFSTAIANALKILNDLEHHHHHH | not soluble
13 | QSATARPMAIALGVAEPAPRGFLLIGANRVAREIGQALARYDRRVLMTDSNWEYISQVRMMGLDYYYGNPISSHADDNLNMIGIGQVVALTPDQHFNIMACMQFVDEFGEDKVHCLQKVKTNGNGSEKHSVAQEYHGKLLMGGNVSYTQLASLLSRGAEIKHTKLSENFTYQDYLEHHKTNLVIPLFNVEDKGKIQFCDDPDQFAPSTTSTIVSLILPESAQ | not soluble
14 | MKIKSIEPTPSPNTMKVILTEELPAGKSNNYKPEQAEGAPLVIAEILKIDGVKGVYHVADFLAVERNARYDWKDILPQVRTAFGMESAESAEENRSDQESFGEVKVFVQMFSGIPMQVKLTDGEREERFGLPERFQQAILKLRSEASNVVFERAWKEQGVRFGDFDEIGHDVTEELQAAYSDERLKRLTEAAAQGKGEAKQAVQRKAYKVTLDMLDDEDWKKRYAHLEQMDPKEEDIPVLQKALDDPKVSIRRQAVVYLGMIETPDVLPLLYKALEDKAVSVRRTAGDCLSDIGDPQAIPAMIKSLSDSSKLVRWRAAMFLYEVGDESAIEALRAAEDDPEFEVSLQVKMALERIEHGEEAKGSVWKQMTESRKKGE | soluble
15 | MGSDKIHHHHHHMEHTRLHNKGLTLDKIFLKTLRTTHNGFLTDGKDRIGYGEFYDRVIAIAEELHRDLGENRTVSVMDWNTLNFATLLYAVPLSGNVLHPVDVRQPPEQVMSSMKEAQSSYLLYSADFGRLADAVKTSGIVKEDNIRSTKEVFDESTDHKPGNAGLPELEEDRIASVLFSSGTTGKPKGVRYRHRDIVLTIWAMETNLSAFPGPARLASSDTVFSLIPFFHLWSWGTLYISTLIGASYVVGGRFDPGSTSDLIKRNGVTWMSMVPTMFNALISWDRNSLDGMKILIGGSAIPSGILNFASDHQIELTGIYGFTDGLAAGIGTSNINGSLSERNADAVNAITPLVFTDFEVEGENNEIKFRSPWIPEGYFNVQEERAYRDGWFYPGDSAEFTQDGKIRIRDRIKDLIKSGGEFIPSALLEYYISEIGDIGDVAVIGVHDDKWIERPVAIYRTRSGATVNDEIIRSYLKDLSNKGLIRDWWIPDRFIPVDSMPMTGTGKIDKKTLRAMLEKGDLRTDRK | not soluble
16 | MAHHHHHHMMSAAARKRRCQQARQREPAAPQQKGEASRHDDTAEPERKPLTGAVSPAINSAAEAPSATPPVLSSHFSLKPGLPTSPPLMHKRTATRCGSVDEDALFFQTYENVADMRFASLDEIAQSVVDLRQRVQQRMQHQRLLTDIEALHERHGSALLRSMPHVLNVLEAAAAVDDGAEGPSGRSGGGQFTMSPEQVYARMVRQIDEQRSGHEQHQRDPDNAEKVVGILHLRQLPVGRPIPPRIRQLRESAALAQVAASEEARRRSRLLPRESKDRSSSTTKRGVSVSAAVSIQFADPAAPLMASSTGGGRSSSLTTVMELRRWRPYLERRNRLSAALTRIFDATTLRAVYSYYRTCALLQRDAAVVRRLVPDRQQWSALPSIEELAVLDRRLEVMFEGRPSWDGRQGA | not soluble
17 | MSLVDIHSHIIPGIDDGSNSLETTLNMMSIAKEAGVTKMVATSHYYRGKFENSISVIEKKANELNYTLKEKGVDIDVIPGQEVFIDNYTLKDYKEGIIGTINNTDYMLVEFDMMSLGENAIDTLYELQIKGIKPIIAHPERYTYIQKDIYKINELMDENIYFQVNAGSIEGLFGKTVQKTALKLVEEGVISFIASDAHSAGKRCPGYEKALHDLTKIDKTLAEKFIKNSNLLLENEKIENKVRKLKKKKTFFSFLKEGHHHHHH | soluble
18 | MHHHHHHMKEVVSSVYKEILVKLGLTEDRIETLEMKGGIIEDEFDGIRYVRFKDSAGKLRRGTVVIDEEYVIPGFPHIKRIINLRSGIRRIFKRGEFYVEEKVDGYNVRVVMYKGKMLGITRGGFICPFTTERIPDFVPQEFFKDNPNLILVGEMAGPESPYLVEGPPYVKEDIQFFLFDVQEIKTGRSLPVEERLKIAEEYGINHVEVFGKYTKDDVDELYQLIERLSKEGREGIIMKSPDMKKIVKYVTPYANINDIKIGARVFYELPPGYFTSRISRLAFYLAEKRIKGEEFERVAKELGSALLQPFVESIFDVEQEEDIHELFKVRVKRIETAYKMVTHFEKLGLKIEIVDIEEIKDGWRITFKRLYPDATNEIRELIGGKAFVD | soluble
